Patent publication US9202600B2, “Method for production of radioisotope preparations and their use in life science, research, medical application and industry” (priority 2005, dated 2015)
Entries after “also recorded” stand apart in the source; their conditions may differ.

Experiments:
CD20 = molecular target: T1, CD20 (Homo sapiens, UniProt P11836); assay: Cell binding of the labeled antibody; type: cell-based; settings: without extrapolation to infinite antigen excess
T1 construct: endogenous in cells
T1 sequence (P11836 1-297): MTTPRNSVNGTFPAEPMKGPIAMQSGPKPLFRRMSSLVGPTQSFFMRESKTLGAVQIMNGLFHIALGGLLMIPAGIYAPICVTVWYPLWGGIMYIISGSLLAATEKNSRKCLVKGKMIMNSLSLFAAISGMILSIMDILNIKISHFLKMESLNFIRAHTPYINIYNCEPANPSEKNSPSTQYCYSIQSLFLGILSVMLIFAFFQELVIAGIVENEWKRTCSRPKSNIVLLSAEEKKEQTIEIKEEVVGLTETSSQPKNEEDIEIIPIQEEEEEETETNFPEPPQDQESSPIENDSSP
Description: 25-40 μl of the ^149Tb solution characterized above was used immediately for the labeling procedure. The pH was adjusted to 5.5 by adding 60 μl of 3 M CH3COONH4 solution, followed by the addition of 10 μl (40 mg/ml) ascorbic acid. After adding 5 μl of a stock solution of the chelated antibody in PBS (10 mg/ml) the mixture was incubated for 10 min at room temperature, before dilution to a final volume of 1.0 ml in PBS-1% human serum. […] The injection of the radioimmuno-conjugate into the mice was performed 1 h after EOS. The in vitro behavior of the labeled bioconjugate (immunoreactivity, cell binding, cell killing efficiency) has been described in a previous paper [Vranjes S D, Miederer M, Comor J J, Soloviev D, Beyer G-J and the ISOLDE collaboartion. Labeling of monoclonal antibodies with 149-Th for targeted alpha therapy. J Lab Comp Radiopharm 2001; 44:718-720]. With the same antibody the inventors observed up to 55% cell binding without extrapolation to infinite antigen excess.

[1] = Biodistribution of 149Tb-labeled Rituximab and retention of long-lived daughter radioactivity (gamma spectroscopy of organs); type: in vivo, SCID mice; settings: for Biodistribution, Liver: SCID mouse, 2 h p.i. (i.v.)
Description: (§1) The in vivo studies were performed using 26 female SCID mice (C.B.-17/ICR, Iffa Credo) under the authorization Nr: GE 31.1.1049/1879/11. The mice, which were 8 weeks old at the start of the experiment and weighed 20 g on average, were kept in sterile, ventilated boxes. […] Each mouse received 5-10^6 Daudi cells by injection of 0.2 ml cell suspension in PBS into the tail vein. […] According to the authorized protocol the mice were surveyed for 120 days: their behavior was logged each day, their condition was supervised once a week by a veterinarian, and they were weighed three times a week. At the appearance of obvious signs of paralysis, visible tumor masses, or a weight loss of >15%, the mice were sacrificed. One mouse was sacrificed shortly after injection (2 h p.i.) and kept deep-frozen for later analysis, in order to act as a reference for later quantification of the daughter radioactivity distribution.
Organ samples were taken from the sacrificed mice and the radioactivity concentration of the long-lived daughter products was determined by using high-resolution gamma spectroscopy (18% HP—Ge detector in combination with the Gamma spectrometer Genie 2000, Canberra). Whole, intact mice, as well as isolated organ samples were measured. Since the radioactivity content of the samples was essentially very low, long measuring times (between 1 and 24 hours) were applied.

Daudi cells = assay: Survival of SCID mice i.v. xenografted with Daudi cells (leukemia model) after immunotherapy or radioimmunotherapy; type: in vivo; settings: for protection / disease status over 120 days observation: 5.5 MBq 149Tb-labeled Rituximab (5 μg), single i.v. injection
Description: Daudi cells (ATCC Nr. CCL-213) were used to simulate a leukemia model in mice. The cells were cultured in RPMI 1640 medium supplemented with 10% heat-inactivated fetal calf serum and 0.5% penicillin (10000 U/ml)/streptomycin (10 mg/ml) (Sigma-Aldrich). The cell suspension to be injected into mice was prepared by centrifuging the culture for 3 min at 1200 rpm, washing with PBS and re-suspending in PBS at 2.5-10^7 cells per ml.
as §1
The survival of animals until sacrifice because of disease development or the end of the experiment (no disease development) was compared between the different groups according a Kaplan Meier analysis using the Lee-Desu evaluation of the Unistat 3.0 statistical package (Megalon, Novato Calif., USA).

[2] = Daughter nuclide ingrowth and shelf-life of the 149Tb-labeled bioconjugate; type: physicochemical; settings: for increase of the long-lived daughter content, factor: fixed dose applied 4 hours after the final purification of the isotope (EOS)
Description: Spallation reaction in combination with on line mass separator technology was used for the production of ^149Tb for this study. The radiochemical separation and purification of the […] was relatively easy to perform in about 30 minutes in this specific case, since the inventors started from non-carrier added preparations. The final ^149Tb preparation was obtained in very high purity and in a small volume, the labeling of the bioconjugate was fast (10 minutes) and almost quantitative. The administration of the preparation should be carried out as rapidly as possible after purification of the ^149Tb, since levels of contamination with daughter nuclides will increase with time. For example, application of a fixed dose of the ^149Tb-labeled bioconjugate 4 hours after the final purification of the isotope itself (EOS) leads to an increase of the long-lived daughter content by a factor of 2. According to the preliminary dose estimation one could define a shelf-life for the labelled ^149Tb-labeled bioconjugate of about 4-6 hours. For a longer delay it would be advisable to repurify the ^149Tb from the accumulated daughter products, a process that could be expected to require 30 minutes.

[3] = 2 h p.i., listed as 149Tb-CHX-A-DTPA-Rituximab
[4] = listed as 149Tb-CHX-A-DTPA-Rituximab
[5] = Group 3, 5 μg 149Tb-labeled Rituximab (5.55 MBq) i.v. 2 days after Daudi cell inoculation

Substance: ^149Tb-labeled Rituximab
- cell binding (CD20): up to 55%
- Biodistribution, Body total ([1]; 2 h p.i.): 100 % i.d./Organ
- Biodistribution, Bone ([1]; 2 h p.i.): 9.1 ± 0.7 %/g tissue
- Biodistribution, Muscles ([1]; 2 h p.i.): <0.2 %/g tissue
- Biodistribution, Bone ([1]; 2 h p.i., bone total calculated as 9 × both femur activity): 13 ± 1 % i.d./Organ
- Biodistribution, Kidney ([1]; 2 h p.i., both kidneys measured together, listed as 149Tb-CHX-A-DTPA-Rituximab): 24 %/g tissue
- Biodistribution, Heart [1, 3]: 41 %/g tissue
- Biodistribution, Spleen [1, 3]: 42 %/g tissue
- share of the retained daughter activity located in bone tissue ([1]; 120 days after injection): 91.1%
- Remaining daughter radioactivity, Blood ([1]; 120 d p.i.): <0.01 % i.d./Organ
- Remaining daughter radioactivity, Body total (retention of the long-lived daughter products) ([1]; 120 d p.i.): 28.4 ± 4 % i.d./Organ
- Remaining daughter radioactivity, Bone ([1]; 120 d p.i.): 13 ± 2 %/g tissue
- Remaining daughter radioactivity, Heart ([1]; 120 d p.i.): <0.01 % i.d./Organ
- Remaining daughter radioactivity, Lung ([1]; 120 d p.i.): <0.01 % i.d./Organ
- Remaining daughter radioactivity, Muscles ([1]; 120 d p.i.): <0.02 % i.d./Organ
- Remaining daughter radioactivity, Bladder ([1]; 120 d p.i., bladder measured with urine): <0.01 % i.d./Organ
- Remaining daughter radioactivity, Bone ([1]; 120 d p.i., bone total calculated as 9 × both femur activity): 26 ± 4 % i.d./Organ
- Remaining daughter radioactivity, Body total (retention of the long-lived daughter products) ([1]; 120 d p.i., listed as 149Tb-CHX-A-DTPA-Rituximab): 28.4±4 % i.d./Organ
- Remaining daughter radioactivity, Body total (retention of the long-lived daughter products) ([1]; 120 d p.i., listed as labeled antibody conjugate): 28.4±4 % i.d./Organ
- Biodistribution, Liver [1]: 18 ± 3 % i.d./Organ
- Biodistribution, Liver [1, 4]: 18±3 % i.d./Organ
- primary injected radioactive atoms excreted from the mice ([1]; after 120 days): 71.6%
- time after which the only mouse of the group was lost (abdominal tumor growth) (Daudi cells; 5.5 MBq 149Tb-labeled Rituximab (5 μg Rituximab per animal)): 48 days
- protection / disease status over 120 days observation (Daudi cells): almost complete protection; also recorded: long-term survival without evidence of any disease at 120 days
- protection / disease status over 120 days observation (Daudi cells; [4]): without any visible signs of a disease
- protection / disease status over 120 days observation (Daudi cells; listed as 149Tb-CHX-DTPA-Rituximab): almost completely protected
- Follow-up (120 days after the therapy): no pathologic changes (Daudi cells; [5]): 89% no
- Follow-up (120 days after the therapy): paralyzed, abdominal tumor (Daudi cells; [5]): 11% paralyzed,
- tumor free survival for >120 days, share of treated animals (Daudi cells; SCID mice, single i.v. 5.5 MBq labeled conjugate (5 μg Rituximab) 2 days after i.v. graft of 5·10^6 Daudi cells): 89%
- signs of toxicity over four months (Daudi cells; xenografted SCID mice treated with 149Tb-labeled Rituximab): without detectable signs of toxicity
- shelf-life ([2]; defined according to the preliminary dose estimation): 4 to 6 h
- increase of the long-lived daughter content, factor ([2]; listed as 149Tb labeled bioconjugate): increase the activity of the daughter product be by a factor 2. In this way
- increase of the long-lived daughter content, factor ([2]; listed as 149Tb-labeled bioconjugate): 2
